System: peptide library, one residue held at a place counted from the Y acceptor
Assay: relative phosphorylation of the sub-library (ratio to the mean residue at this position); higher = residue favoured
Method in brief: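 Purified recombinant kinases were given 50 μM ATP with γ-32P-ATP and biotinylated Tyr-centred peptide library mixtures for 90 min in 384-well plates. Peptides bound to streptavidin membranes were rinsed and quantified by phosphorimaging, and intensities were normalized per position by the sum of the 18 randomized residues (16 with the Ser/Thr-free library) and multiplied by that number. The reported values are phosphorylation relative to the mean randomized residue.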

Sequence of PDGFRB, construct: aa557-end, human (P09619 557-1106, looked up): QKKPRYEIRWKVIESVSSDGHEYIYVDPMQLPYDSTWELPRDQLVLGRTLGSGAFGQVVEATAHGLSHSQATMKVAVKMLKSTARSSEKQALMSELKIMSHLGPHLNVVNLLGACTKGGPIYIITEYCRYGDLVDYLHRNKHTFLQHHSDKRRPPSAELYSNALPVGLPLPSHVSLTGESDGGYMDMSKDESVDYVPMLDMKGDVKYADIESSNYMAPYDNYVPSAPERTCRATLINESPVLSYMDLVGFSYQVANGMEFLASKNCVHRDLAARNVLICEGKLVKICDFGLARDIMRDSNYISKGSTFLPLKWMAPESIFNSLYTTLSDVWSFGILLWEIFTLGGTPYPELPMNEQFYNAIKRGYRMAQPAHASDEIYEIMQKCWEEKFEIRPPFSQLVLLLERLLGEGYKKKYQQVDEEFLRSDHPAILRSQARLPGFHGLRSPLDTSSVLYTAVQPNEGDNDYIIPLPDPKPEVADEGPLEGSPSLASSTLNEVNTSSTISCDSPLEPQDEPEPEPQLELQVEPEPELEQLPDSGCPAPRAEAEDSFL

PDGFRB, construct: aa557-end, human (from UniProt P09619)
relative phosphorylation
Settings | at +1 | at +2 | at +3 | at +4 | at +5 | at -1 | at -2 | at -3 | at -4 | at -5
A fixed | 1.1 | 0.618 | 0.621 | 0.809 | 0.959 | 0.751 | 0.921 | 0.883 | 1.02 | 0.916
D fixed | 0.263 | 0.542 | 0.332 | 0.816 | 0.825 | 1.46 | 0.994 | 1.26 | 1.11 | 1.13
E fixed | 0.377 | 0.815 | 0.245 | 0.817 | 0.757 | 0.988 | 1.08 | 1.26 | 0.996 | 1.12
F fixed | 1.49 | 1.41 | 1.54 | 0.86 | 0.93 | 1.33 | 0.75 | 0.807 | 1.01 | 0.902
G fixed | 0.536 | 0.452 | 0.617 | 1.01 | 1.11 | 0.532 | 1.18 | 1.03 | 1.15 | 1.11
H fixed | 1.25 | 0.986 | 0.975 | 1.25 | 1.04 | 1.96 | 1.27 | 1.08 | 1.08 | 1.08
I fixed | 1.91 | 1.04 | 2.13 | 0.898 | 0.769 | 1.12 | 0.745 | 0.707 | 0.816 | 0.877
K fixed | 0.561 | 1.02 | 0.776 | 1.17 | 1.15 | 0.534 | 1.02 | 0.997 | 1.05 | 1.06
L fixed | 0.96 | 1.12 | 1.57 | 0.854 | 0.906 | 0.898 | 0.88 | 0.752 | 0.793 | 0.843
M fixed | 0.964 | 1.2 | 1.3 | 0.978 | 0.852 | 0.818 | 0.76 | 0.857 | 0.816 | 0.892
N fixed | 0.451 | 0.899 | 0.775 | 0.976 | 1.12 | 1.58 | 1.28 | 1.31 | 1.03 | 1.12
P fixed | 0.259 | 0.732 | 0.857 | 0.909 | 1.08 | 0.742 | 1.05 | 1.08 | 1.16 | 0.995
Q fixed | 1.05 | 0.969 | 0.715 | 1.14 | 1 | 1.11 | 1.23 | 1.12 | 1.14 | 1.21
R fixed | 0.668 | 1.67 | 1.09 | 1.5 | 1.41 | 0.56 | 1.2 | 1.19 | 1.14 | 1.37
S fixed | 0.828 | 0.663 | 0.733 | 0.958 | 1.2 | 0.696 | 1.16 | 1.08 | 0.87 | 0.916
T fixed | 1.27 | 0.75 | 0.711 | 0.965 | 0.96 | 0.872 | 0.958 | 0.923 | 0.759 | 0.76
V fixed | 2.65 | 0.96 | 1.58 | 0.881 | 0.768 | 1.05 | 0.752 | 0.744 | 0.776 | 0.721
W fixed | 1.41 | 2.14 | 1.42 | 1.2 | 1.15 | 0.997 | 0.787 | 0.924 | 1.28 | 0.986
pThr fixed | 0.867 | 0.439 | 0.272 | 0.505 | 0.575 | 0.682 | 0.836 | 0.865 | 0.87 | 0.845
pTyr fixed | 1.15 | 1.84 | 0.4 | 0.809 | 0.751 | 1.06 | 1.08 | 1.19 | 1.29 | 1.01

Reference: the supplement of paper PMC11136658
